{"source": "paper PMC10810221", "about": "“DELTEX E3 ligases ubiquitylate ADP-ribosyl modification on nucleic acids”", "binders": {"B1": {"name": "E35_5'P_RNA_3Cy3 (ssRNA)", "RNA": "GUGGCGCGGAGACUUAGAGAAAUUGUGAUCAGGAA", "modifications": "5' phosphate"}}, "target": "DTX3L RD (RING-DTC) (Homo sapiens, UniProt Q8TDB6 544-740)", "sequence (Q8TDB6 544-740)": "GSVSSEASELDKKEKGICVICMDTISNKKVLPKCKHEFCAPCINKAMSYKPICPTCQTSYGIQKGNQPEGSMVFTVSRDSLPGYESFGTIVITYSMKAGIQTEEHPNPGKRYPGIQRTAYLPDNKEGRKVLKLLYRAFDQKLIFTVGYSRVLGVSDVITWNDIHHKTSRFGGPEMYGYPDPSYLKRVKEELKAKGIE", "test": "EMSA; 5 mM Mg2+; protein 0.5, 1, 2 uM; RNA 0.5 uM; EMSA: 20 mM HEPES pH 7.5, 50 mM KCl, 5 mM MgCl2, 1 mM DTT, on ice 0.5 h, 6% native PAGE", "settings": "protein: recombinant; label: 3' Cy3; single strand", "data": [{"binder": "B1", "values": [{"measurement": "binding result", "result": "no binding"}]}]}
